One may read the Km as the substrate concentration at which the rate is half of its maximum. As usually defined, the kcat is the number of substrate molecules converted per active site and unit of time at saturation.

Experiment in all cases: fluorescence, 4-mU release
Holding throughout (conditions): 0.1 M phosphate pH 7, 30 °C, 5% DMSO

Substrate in data set [1]: CCOCCOC(=O)c1ccc(C(=O)Oc2ccc3c(C)cc(=O)oc3c2)cc1
It is filed as biochemical, Pseudideonella sakaiensis. The source says:
(§1) fluorescence, 4-mU release on IsPETase

Substrate in data set [2]: COC(=O)c1ccc(C(=O)OCCOC(=O)c2ccc(C(=O)Oc3ccc4c(C)cc(=O)oc4c3)cc2)cc1
The class given is biochemical, Pseudideonella sakaiensis.
Excerpt: as §1

Substrate in data set [3]: COC(=O)c1ccc(C(=O)Oc2ccc3c(C)cc(=O)oc3c2)cc1
The class given is biochemical, Pseudideonella sakaiensis.
Excerpt: as §1

Substrate in data set [4]: CCOCCOC(=O)c1ccc(C(=O)Oc2ccc3c(C)cc(=O)oc3c2)cc1
It is filed as biochemical, Thermothelomyces thermophilus. The source says:
(§2) fluorescence, 4-mU release on StGE2 (glucuronoyl esterase)

Substrate in data set [5]: COC(=O)c1ccc(C(=O)Oc2ccc3c(C)cc(=O)oc3c2)cc1
It is filed as biochemical, Thermothelomyces thermophilus.
Excerpt: as §2

Substrate in data set [6]: CCOCCOC(=O)c1ccc(C(=O)Oc2ccc3c(C)cc(=O)oc3c2)cc1
The class given is biochemical, unidentified prokaryotic organism. The text has this:
(§3) fluorescence, 4-mU release on LCC^ICCG (leaf-branch compost cutinase ICCG variant)

Substrate in data set [7]: COC(=O)c1ccc(C(=O)OCCOC(=O)c2ccc(C(=O)Oc3ccc4c(C)cc(=O)oc4c3)cc2)cc1
It is filed as biochemical, unidentified prokaryotic organism.
Excerpt: as §3

Substrate in data set [8]: COC(=O)c1ccc(C(=O)Oc2ccc3c(C)cc(=O)oc3c2)cc1
The class given is biochemical, unidentified prokaryotic organism.
Excerpt: as §3

B1: IsPETase (Pseudideonella sakaiensis) (protein)
chain: QTNPYARGPNPTAASLEASAGPFTVRSFTVSRPSGYGAGTVYYPTNAGGTVGAIAIVPGYTARQSSIKWWGPRLASHGFVVITIDTNSTLDQPSSRSSQQMAALRQVASLNGTSSSPIYGKVDTARMGVMGWSMGGGGSLISAANNPSLKAAAPQAPWDSSTNFSSVTVPTLIFACENDSIAPVNSSALPIYDSMSRNAKQFLEINGGSHSCANSGNSNQALIGKKGVAWMKRFMDNDTRYSTFACENPNSTRVSDFRTANCS
notes: recombinant, pET-22b(+), E. coli BL21, intracellular fraction, purified
As for B1, the Km came to 9.3 ± 0.8 µM in data set [1], 34.1 ± 5.5 µM in data set [2] and 6.7 ± 0.6 µM in data set [3]. In addition, the kcat in data set [1] came to 3.8e-05 ± 1e-06 s⁻¹; in data set [3] it was 5e-05 ± 2e-06 s⁻¹.

B2: StGE2 (glucuronoyl esterase) (Thermothelomyces thermophilus ATCC 42464) (protein)
chain: APMNHIFERQDTCSVSDNYPTVNSAKLPDPFTTASGEKVTTKDQFECRRAEINKILQQYELGEYPGPPDSVEASLSGNSITVRVTVGSKSISFSASIRKPSGAGPFPAIIGIGGASIPIPSNVATITFNNDEFGAQMGSGSRGQGKFYDLFGRDHSAGSLTAWAWGVDRLIDGLEQVGAQASGIDTKRLGVTGCSRNGKGAFITGALVDRIALTIPQESGAGGAACWRISDQQKAAGANIQTAAQIITENPWFSRNFDPHVNSITSVPQDHHLLAALIVPRGLAVFENNIDWLGPVSTTGCMAAGRLIYKAYGVPNNMGFSLVGGHNHCQFPSSQNQDLNSYINYFLLGQGSPSGVEHSDVNVNVAEWAPWGAGAPTLA
notes: recombinant, expressed in Komagataella phaffii (Pichia pastoris), purified
For B2, the Km was 4.7 ± 0.4 µM in data set [4] and 0.7 ± 0.1 µM in data set [5].

B3: LCC^ICCG (leaf-branch compost cutinase ICCG variant) (unidentified prokaryotic organism; D238C/F243I/S283C/Y127G) (protein)
chain: QSNPYQRGPNPTRSALTADGPFSVATYTVSRLSVSGFGGGVIYYPTGTSLTFGGIAMSPGYTADASSLAWLGRRLASHGFVVLVINTNSRFDGPDSRASQLSAALNYLRTSSPSAVRARLDANRLAVAGHSMGGGGTLRIAEQNPSLKAAVPLTPWHTDKTFNTSVPVLIVGAEADTVAPVSQHAIPFYQNLPSTTPKVYVELCNASHIAPNSNNAAISVYTISWMKLWVDNDTRYRQFLCNVNDPALCDFRTNNRHCQ
notes: recombinant engineered variant ICCG, pET-22b(+), E. coli BL21, intracellular fraction, purified
For the protein B3, the Km in data set [6] was determined as 7.2 ± 0.7 µM; in data set [7] it was 21.7 ± 2.8 µM; in data set [8], 1.6 ± 0.1 µM. Further, the values for the kcat in data set [6], in data set [7] and in data set [8] were 5.8e-05 ± 2e-06 s⁻¹, 1.3e-05 ± 1e-06 s⁻¹ and 3.4e-05 ± 1e-06 s⁻¹, respectively.

These data come from paper PMC11187625, “New Labeled PET Analogues Enable the Functional Screening and Characterization of PET-Degrading Enzymes” (ACS Sustainable Chemistry & Engineering, 2024).
